Source: article PMC3358304

Assay: immunoblot of total Akt, MCF-7
Conditions: glycan lost; control: wild type

Substance | expression_or_secretion
Akt (AKT1): T305Y | no change
Akt (AKT1): T312Y | no change
